The target in the assay is TcpJ, type 4 prepilin peptidase of Vibrio cholerae (wild-type) (Vibrio cholerae).

Aprotinin (from UniProt P00974): the % Cleavage of TcpA prepilin by TcpJ in the in vitro cleavage assay was found to be 100%.

These data come from patent US20050201999A1.
